Test results taken from patent US20220010003A1.

Experiments:
[1] = target: recombinant human periostin (human) (UniProt Q15063); assay: ELISA, human periostin coated, biotinylated collagen type I titrated, Avidin-HRP detection
[2] = target: recombinant human periostin (human) (UniProt Q15063); assay: ELISA, human periostin coated, biotinylated tenascin C titrated, Avidin-HRP detection

Sequence of recombinant human periostin (human) (Q15063 22-836 limits assumed): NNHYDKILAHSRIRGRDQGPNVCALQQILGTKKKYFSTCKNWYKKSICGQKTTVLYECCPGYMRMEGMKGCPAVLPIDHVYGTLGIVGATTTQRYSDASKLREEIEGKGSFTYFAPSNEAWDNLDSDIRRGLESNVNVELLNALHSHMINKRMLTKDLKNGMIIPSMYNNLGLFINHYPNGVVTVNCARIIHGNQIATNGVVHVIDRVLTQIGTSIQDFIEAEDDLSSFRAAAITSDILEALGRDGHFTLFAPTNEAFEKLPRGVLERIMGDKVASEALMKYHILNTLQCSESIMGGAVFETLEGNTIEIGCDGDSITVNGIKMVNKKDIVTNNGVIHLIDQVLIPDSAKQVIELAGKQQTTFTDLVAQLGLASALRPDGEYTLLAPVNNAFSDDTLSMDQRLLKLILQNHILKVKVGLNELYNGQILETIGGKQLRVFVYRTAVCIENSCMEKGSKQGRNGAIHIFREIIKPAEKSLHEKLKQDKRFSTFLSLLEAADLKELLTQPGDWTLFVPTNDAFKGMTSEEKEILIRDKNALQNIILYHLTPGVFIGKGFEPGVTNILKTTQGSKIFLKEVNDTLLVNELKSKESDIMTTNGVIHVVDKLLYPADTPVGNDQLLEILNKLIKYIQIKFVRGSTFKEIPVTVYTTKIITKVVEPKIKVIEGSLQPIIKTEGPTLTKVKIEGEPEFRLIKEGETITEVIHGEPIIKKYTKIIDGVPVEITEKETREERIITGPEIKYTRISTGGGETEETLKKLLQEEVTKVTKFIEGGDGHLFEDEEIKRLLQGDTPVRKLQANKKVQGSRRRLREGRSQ

EC80 [1] | EC80 [2] | Substance
100 nM | – | human collagen type I (from UniProt P02452 162-1218; P08123 80-1119)
– | 0.9 nM | recombinant human tenascin C (from UniProt P24821 23-625)
